{"source": "paper PMC4607889", "about": "“Modular Design of the Selectivity Filter Pore Loop in a Novel Family of Prokaryotic ‘Inward Rectifier’ (NirBac) channels” (Scientific Reports, 2015)", "key": {"[1]": {"target": "NirBac1.1 (Anaeromyxobacter dehalogenans 2CP-C)", "assay": "SEC + native gel or EMSA; purified channel in detergent, non-denaturing conditions; Superdex200; oligomeric state (Supplementary Figure S2B,C)"}, "NirBac1.1": {"target": "T1, NirBac1.1 (Anaeromyxobacter dehalogenans, UniProt Q2IH88)", "T1 sequence (Q2IH88 1-305)": "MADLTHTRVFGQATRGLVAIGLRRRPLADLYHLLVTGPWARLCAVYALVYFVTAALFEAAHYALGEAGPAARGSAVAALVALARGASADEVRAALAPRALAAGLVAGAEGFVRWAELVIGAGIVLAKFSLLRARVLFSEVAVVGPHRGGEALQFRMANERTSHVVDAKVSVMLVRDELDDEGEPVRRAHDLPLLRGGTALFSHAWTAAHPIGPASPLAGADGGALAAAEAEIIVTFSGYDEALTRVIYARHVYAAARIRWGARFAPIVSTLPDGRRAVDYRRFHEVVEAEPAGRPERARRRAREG", "assay": "[…]+ uptake into proteoliposomes", "type": "biochemical", "conditions": "POPG as part of liposome lipid, 25% vs 50% of total; Na+ driven; activator"}, "NirBac1.2": {"target": "T2, NirBac1.2 (Anaeromyxobacter sp. Fw109-5, UniProt A7HIG5)", "T2 sequence (A7HIG5 1-299)": "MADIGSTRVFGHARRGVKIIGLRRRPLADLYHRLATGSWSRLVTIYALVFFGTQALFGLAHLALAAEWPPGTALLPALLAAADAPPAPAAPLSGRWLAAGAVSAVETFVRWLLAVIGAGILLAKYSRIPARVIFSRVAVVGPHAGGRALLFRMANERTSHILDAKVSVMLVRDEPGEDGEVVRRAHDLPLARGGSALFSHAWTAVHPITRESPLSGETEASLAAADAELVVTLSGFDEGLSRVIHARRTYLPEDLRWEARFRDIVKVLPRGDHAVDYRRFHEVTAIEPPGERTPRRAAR", "assay": "[…]+ uptake into proteoliposomes", "type": "biochemical", "conditions": "POPG as part of liposome lipid, 25% vs 50% of total; Na+ driven; activator"}, "[2]": {"target": "NirBac1.2 (Anaeromyxobacter sp. Fw109-5)", "assay": "SEC + native gel or EMSA; purified channel in detergent, non-denaturing conditions; Superdex200; oligomeric state (Supplementary Figure S2B,C)"}}, "data": [{"molecule": "NirBac1.1 (natural protein)", "values": [{"measurement": "stoichiometry N", "setting": "[1]", "value": 4}]}, {"molecule": "CCCCCCCC/C=C\\CCCCCCCC(=O)O[C@H](COC(=O)CCCCCCCCCCCCCCC)COP(=O)(O)OCC(O)CO", "note": "(stereo partly shown) [POPG]", "values": [{"measurement": "fold flux increase, 25% to 50% POPG", "setting": "NirBac1.1", "value": "> 5", "unit": "fold"}, {"measurement": "fold flux increase, 25% to 50% POPG", "setting": "NirBac1.2", "value": "> 5", "unit": "fold"}]}, {"molecule": "NirBac1.2 (natural protein)", "values": [{"measurement": "stoichiometry N", "setting": "[2]", "value": 4}]}]}
